# Values joined by “and” are separate entries in the source; they are usually repeats but may differ in a detail not shown here. Equal values may be shown once. Read-outs that look alike come from different tables or passages of the source. Where no end group is shown, it is not given here.
# B1: Phage-1021 (Peptide-87 library peptide, SEQ ID NO: 1337) (peptide)
# peptide: YCDGHLPIYQAKCL
# notes: tested as crude clonal phage supernatant
# B2: Phage-1022 (Peptide-87 library peptide, SEQ ID NO: 1338) (peptide)
# peptide: YCDGHSEQYIAKCL
# notes: as for B1
# B3: Phage-1013 (Peptide-87 library peptide, SEQ ID NO: 1329) (peptide)
# peptide: YCEGHSLMYMAKCL
# notes: as for B1
# B4: Phage-1010 (Peptide-87 library peptide, SEQ ID NO: 1326) (peptide)
# peptide: YCDGHSELYMAKCL
# notes: as for B1
# B5: Phage-1014 (Peptide-87 library peptide, SEQ ID NO: 1330) (peptide)
# peptide: YCDGHSQEYMEKCL
# notes: as for B1
# B6: Phage-1020 (Peptide-87 library peptide, SEQ ID NO: 1336) (peptide)
# peptide: YCEGHIMQYMAQCL
# notes: as for B1
# B7: Phage-1012 (Peptide-87 library peptide, SEQ ID NO: 1328) (peptide)
# peptide: YCEGHMPQYMEKCL
# notes: as for B1
# B8: Peptide-87 (peptide)
# peptide: YCAGHAWQYINKCL
# modifications: not fully specified; cysteine pairing not given here; also: biotinylated, site not given here
# B9: Peptide-114 (peptide)
# peptide: YCAGHAWQYIAKCL
# notes: Alanine scan variant of Peptide-87 (N11A)
# B10: Peptide-116 (peptide)
# peptide: YCAGHAWQYINKCA
# notes: Alanine scan variant of Peptide-87 (L14A)
# B11: Peptide-110 (peptide)
# peptide: YCAGHAAQYINKCL
# notes: Alanine scan variant of Peptide-87 (W7A)
# B12: Peptide-111 (peptide)
# peptide: YCAGHAWAYINKCL
# notes: Alanine scan variant of Peptide-87 (Q8A)
# B13: Peptide-113 (peptide)
# peptide: YCAGHAWQYANKCL
# notes: Alanine scan variant of Peptide-87 (I10A)
# Experiments:
# anti-CD28 Fab [1] = test: competition ELISA, peptide titrated 0-100 uM against 1 nM anti-CD28 Fab, plate-bound CD28 as competitor
# [2] = target: T1, anti-CD28 scFv (disulfide); test: competition ELISA, peptide titrated 0-100 uM against 0.3 nM anti-CD28 scFv (disulfide), plate-bound CD28 as competitor
# T1 construct: also called Anti-CD28 scFv (VH - linker 1 - VL) Disulfide mutation: G44C, G235C
# [3] = target: T2, Anti-CD28 Fab (SEQ ID NOs: 696, 697); test: phage binding ELISA; biotinylated Fab on neutravidin plate, clonal phage supernatant, anti-M13 HRP; background signal 0.06
# T2 construct: Biotinylated and captured on neutravidin coated plates in the phage ELISA
# [4] = target: T2, Anti-CD28 Fab (SEQ ID NOs: 696, 697); test: phage binding ELISA on captured Fab; competitor: CD28 antigen pre-incubated in the wells
# [5] = target: T3, Anti-CD28 Fab (SEQ ID NOs: 696, 697); test: phage binding ELISA; biotinylated anti-CD28 Fab captured on neutravidin plate, clonal phage supernatant, anti-M13 HRP detection
# T3 construct: In the phage ELISA the Fab was biotinylated and captured on neutravidin coated plates
# [6] = target: T3, Anti-CD28 Fab (SEQ ID NOs: 696, 697); test: phage binding ELISA on captured anti-CD28 Fab; wells pre-incubated with CD28 antigen as competitor
# anti-CD28 scFv = target: T4, anti-CD28 scFv; test: BLI (Octet RED96): biotinylated peptide on streptavidin sensor, anti-CD28 scFv at 100-12.5 nM, 1:1 model
# T4 construct: also called Anti-CD28 scFv (VH - linker 1 - VL)
# anti-CD28 Fab [7] = test: competition ELISA, peptide titrated 0-100 uM against 1 nM anti-CD28 Fab, plate-bound CD28 as competitor; remark: listed apart in the source
# anti-CD28 Fab [8] = test: as above; remark: listed apart in the source
# Ab-15 [9] = test: binding ELISA: biotinylated peptide on neutravidin plate, Ab-15 titrated
# Ab-15 [10] = test: competition ELISA: peptide titrated against 1 nM Ab-15; competitor plate-bound CD28
# Ab-15 [11] = test: BLI (Octet): sensor loaded with 200 nM biotinylated peptide, 100 nM Ab-15
# anti-CD28 Fab [12] = test: competition ELISA: peptide titrated (0-100 µM) with 1 nM anti-CD28 Fab, binding to plate-bound CD28
# [13] = target: T5, anti-CD28 scFv (disulfide); test: competition ELISA: peptide titrated (0-100 µM) with 0.3 nM anti-CD28 scFv (disulfide), binding to plate-bound CD28
# T5 construct: also called Anti-CD28 scFv (VH - linker 1 - VL) Disulfide mutation: G44C, G235C
# PSMA Fab [14] = target: T6, PSMA Fab; test: BLI (Octet); PSMA Fab on sensor-loaded biotinylated peptide, 1:1 model
# T6 construct: also called 006 PSMA Fab; anti-PSMA Fab
# PSMA Fab [15] = target: T6, PSMA Fab; test: binding ELISA; PSMA Fab titrated on plate-captured biotinylated peptide
# PSMA Fab [16] = target: T6, PSMA Fab; test: competition ELISA; peptide 0-100 µM with 0.3 nM PSMA Fab on plate-captured biotinylated PSMA
# PSMA Fab [17] = target: T6, PSMA Fab; test: as above; remark: listed apart in the source
# anti-CD28 Fab [18] = test: BLI (Octet): biotinylated peptide on streptavidin sensor, anti-CD28 Fab titrated in solution, 1:1 model
# anti-CD28 Fab [19] = test: competition ELISA: peptide titrated (0-100 µM) with 1 nM anti-CD28 Fab, binding to plate-bound CD28; remark: listed apart in the source
binder,measurement,setting,value
ACDTYFAGMINECF [Peptide-79],IC50,anti-CD28 Fab [1],> 100 µM
same,IC50,[2],> 100 µM
B1,Anti-CD28 Fab signal (phage binding ELISA),[3],1.49
same,Anti-CD28 Fab signal in the presence of CD28 (phage binding ELISA),[4],0.1
WCWDYKLWVPMTCP [Peptide-85],IC50,anti-CD28 Fab [1],> 100 µM
same,IC50,[2],> 100 µM
"YCAGHASEYLQKCL [Phage-1328 (Peptide-87 library sequence, SEQ ID NO: 1644)]","Phage binding ELISA, Anti-CD28 Fab signal",[5],0.43
same,"Phage binding ELISA, Anti-CD28 Fab signal in the presence of CD28",[6],0.06
"YCAGHLDEYMEKCL [Phage-1332 (Peptide-87 library sequence, SEQ ID NO: 1648)]","Phage binding ELISA, Anti-CD28 Fab signal",[5],0.4
same,"Phage binding ELISA, Anti-CD28 Fab signal in the presence of CD28",[6],0.07
B2,Anti-CD28 Fab signal (phage binding ELISA),[3],1.49
same,Anti-CD28 Fab signal in the presence of CD28 (phage binding ELISA),[4],0.08
"MDWCPRERWVDCFF (cysteine pairing not given here; also: biotinylated, site not given here) [Peptide-9]",Kd,anti-CD28 scFv,0.377 µM
same,koff,anti-CD28 scFv,0.0123 s⁻¹
same,kon,anti-CD28 scFv,32500 M⁻¹ s⁻¹
YCAGHAWQYINKCL,IC50,anti-CD28 Fab [7],9.76 µM
same,IC50,anti-CD28 Fab [1],13.8 µM
same,IC50,[2],> 100 µM
same,IC50,anti-CD28 Fab [8],12.6 µM
B3,Anti-CD28 Fab signal (phage binding ELISA),[3],1.5
same,Anti-CD28 Fab signal in the presence of CD28 (phage binding ELISA),[4],0.06
"VPWCQIISGLECLT (cysteine pairing not given here; also: biotinylated, site not given here, CD28 peptide mask) [Peptide-73]",EC50,Ab-15 [9],0.0549 µM
same,IC50,Ab-15 [10],> 100 µM
same,Octet signal (200 nM peptide),Ab-15 [11],0.166
"YCDGHWPGYLWKCL [Phage-1330 (Peptide-87 library sequence, SEQ ID NO: 1646)]","Phage binding ELISA, Anti-CD28 Fab signal",[5],0.42
same,"Phage binding ELISA, Anti-CD28 Fab signal in the presence of CD28",[6],0.06
SCAAGASYAWPYCL [Peptide-92],IC50,anti-CD28 Fab [12],7.89 µM
ACAAGASYAWPYCL [Peptide-99],IC50,anti-CD28 Fab [12],21 µM
same,IC50,[13],67 µM
SCAAGAAYAWPYCL [Peptide-101],IC50,anti-CD28 Fab [12],7.42 µM
same,IC50,[13],36.2 µM
SCAAGASYAWPYCA [Peptide-106],IC50,anti-CD28 Fab [12],76.4 µM
"GYCHYWGDMVMWCG (cysteine pairing not given here; also: biotinylated, site not given here) [Peptide-12]",Kd,anti-CD28 scFv,0.017 µM
same,koff,anti-CD28 scFv,0.00167 s⁻¹
same,kon,anti-CD28 scFv,98700 M⁻¹ s⁻¹
B4,Anti-CD28 Fab signal (phage binding ELISA),[3],1.51
same,Anti-CD28 Fab signal in the presence of CD28 (phage binding ELISA),[4],0.06
"IDWCPLHLWHECYH (cysteine pairing not given here; also: biotinylated, site not given here, CD28 peptide mask) [Peptide-72]",EC50,Ab-15 [9],0.0133 µM
same,IC50,Ab-15 [10],1.52 µM
same,Octet signal (200 nM peptide),Ab-15 [11],0.838
"YCDGHTWMYKQKCL [Phage-1333 (Peptide-87 library sequence, SEQ ID NO: 1649)]","Phage binding ELISA, Anti-CD28 Fab signal",[5],0.4
same,"Phage binding ELISA, Anti-CD28 Fab signal in the presence of CD28",[6],0.08
"YCTGWQVAYMQNCF [Phage-1331 (Peptide-87 library sequence, SEQ ID NO: 1647)]","Phage binding ELISA, Anti-CD28 Fab signal",[5],0.42
same,"Phage binding ELISA, Anti-CD28 Fab signal in the presence of CD28",[6],0.06
B5,Anti-CD28 Fab signal (phage binding ELISA),[3],1.5
same,Anti-CD28 Fab signal in the presence of CD28 (phage binding ELISA),[4],0.06
"LDWCPRHLWALCFN (cysteine pairing not given here; also: biotinylated, site not given here, CD28 peptide mask) [Peptide-70]",EC50,Ab-15 [9],0.0082 µM
same,IC50,Ab-15 [10],0.47 µM
same,Octet signal (200 nM peptide),Ab-15 [11],0.697
MDWCPRDLWVHCFA [Peptide-41],IC50,anti-CD28 Fab [1],> 100 µM
same,IC50,[2],61.5 µM
"YCDGHLPEYMEKCL [Phage-1327 (Peptide-87 library sequence, SEQ ID NO: 1643)]","Phage binding ELISA, Anti-CD28 Fab signal",[5],0.43
same,"Phage binding ELISA, Anti-CD28 Fab signal in the presence of CD28",[6],0.07
B6,Anti-CD28 Fab signal (phage binding ELISA),[3],1.49
same,Anti-CD28 Fab signal in the presence of CD28 (phage binding ELISA),[4],0.06
YCAGHSPINIGKCL [Peptide-84],IC50,anti-CD28 Fab [1],26.8 µM
same,IC50,[2],> 100 µM
"IAVLCQPNWMCAGF (cysteine pairing not given here; also: biotinylated, site not given here, PSMA mask peptide) [Peptide-180]",Off rate t1/2,PSMA Fab [14],36 s
same,EC50,PSMA Fab [15],0.102 µM
same,IC50,PSMA Fab [16],5.23 µM
same,IC50,PSMA Fab [17],4.14 µM
B7,Anti-CD28 Fab signal (phage binding ELISA),[3],1.51
same,Anti-CD28 Fab signal in the presence of CD28 (phage binding ELISA),[4],0.06
"IYWCPIDRWNDCYN (cysteine pairing not given here; also: biotinylated, site not given here, CD28 peptide mask) [Peptide-74]",EC50,Ab-15 [9],0.0076 µM
same,IC50,Ab-15 [10],0.41 µM
same,Octet signal (200 nM peptide),Ab-15 [11],0.705
"YCDGHSQIYMSKCL [Phage-1329 (Peptide-87 library sequence, SEQ ID NO: 1645)]","Phage binding ELISA, Anti-CD28 Fab signal",[5],0.42
same,"Phage binding ELISA, Anti-CD28 Fab signal in the presence of CD28",[6],0.06
B8,Kd,anti-CD28 Fab [18],2.02 µM
same,koff,anti-CD28 Fab [18],0.0202 s⁻¹
same,kon,anti-CD28 Fab [18],10000 M⁻¹ s⁻¹
same,t1/2,anti-CD28 Fab [18],36 s
same,IC50,anti-CD28 Fab [19],12.6 µM
same,IC50,[13],11 µM and 14.6 µM
B9,IC50,anti-CD28 Fab [19],5.49 µM
same,IC50,[13],7.09 µM
B10,IC50,anti-CD28 Fab [19],98.6 µM
same,IC50,[13],76.4 µM
B11,IC50,anti-CD28 Fab [19],3.16 µM
same,IC50,[13],1.91 µM
B12,IC50,anti-CD28 Fab [19],12.3 µM
same,IC50,[13],10.5 µM
B13,IC50,anti-CD28 Fab [19],102 µM
